The source of these data is US20250355001A1 (GTINVENT, published 2025).

For one test, the target named is T1, dGAE (tau 297-391) (human, UniProt P10636 614-708).
T1 construct: monomer; also called dGAE95
Briefly: ELISA. The procedure, abridged:
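Epitope mapping: coat 1 μg/ml antigen (tau fragments) or streptavidin 5 μg/ml + biotinylated peptide 1 μg/ml; block 2% MPBS; scAb 2-fold serial dilution; anti-human C kappa-HRP; absorbance read.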

Test [1] has as its target T2, full length human tau protein 2N4R (hT40) (human, UniProt P10636 1-758).
T2 construct: recombinant; also called T441
Kind of test: direct binding ELISA.

For test [2], the target named is T2, full length human tau protein 2N4R …. Kind of test: Biacore. In a few lines: (§1)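 scAb captured on flow cell 2 of an antibody-coated chip, flow cell 1 as reference; tau analyte injected 120 s association, 420 s dissociation, glycine pH 2.0 regeneration, in multi-cycle or single-cycle kinetics format. Responses fitted to a 1:1 binding model for kinetics and affinity.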
Target sequence in this assay (P10636 other isoform, or with tags, fused parts or gaps limits assumed): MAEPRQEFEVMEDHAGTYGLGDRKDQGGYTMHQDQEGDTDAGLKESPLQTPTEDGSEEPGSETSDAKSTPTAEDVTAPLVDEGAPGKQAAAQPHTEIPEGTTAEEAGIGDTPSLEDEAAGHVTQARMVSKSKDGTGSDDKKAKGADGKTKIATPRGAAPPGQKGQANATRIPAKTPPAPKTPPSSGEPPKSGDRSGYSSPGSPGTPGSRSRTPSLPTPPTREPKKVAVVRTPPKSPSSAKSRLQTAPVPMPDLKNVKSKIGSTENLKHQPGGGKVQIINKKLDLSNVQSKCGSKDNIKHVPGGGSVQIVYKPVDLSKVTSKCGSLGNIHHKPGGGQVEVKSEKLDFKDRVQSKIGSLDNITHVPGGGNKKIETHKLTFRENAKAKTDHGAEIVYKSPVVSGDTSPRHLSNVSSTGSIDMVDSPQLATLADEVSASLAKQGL
Background: SPR reads the build-up and loss of mass on a sensor chip optically.

Test [3] shares this target. Kind of test: SPR, summary table. The procedure, abridged: as §1
Target sequence in this assay (P10636 other isoform, or with tags, fused parts or gaps limits assumed): as above
The next test deals with T3, tau fragment 1-49 (human).
T3 construct: also called Tau 1-49
T3 peptide: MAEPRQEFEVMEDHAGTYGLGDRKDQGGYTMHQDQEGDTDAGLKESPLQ
Kind of test: direct ELISA.

The target in test [4] is T2, full length human tau protein 2N4R …. Briefly: SPR, scAb captured, tau analyte. In a few lines:
as §1
Target sequence in this assay (P10636 other isoform, or with tags, fused parts or gaps limits assumed): as the sequence (P10636 other isoform, or with tags, fused parts or gaps limits assumed) above

For a further test, the target named is T4, mouse tau (mouse, UniProt P10637 2-733).
T4 construct: endogenous protein of mouse brain or plasma; also called endogenous mouse tau
Kind of test: sandwich ELISA on mouse plasma, S1D12 mAb capture. (In an ELISA, binding on a coated surface is turned into a signal by an enzyme label.)

The target of another test is dGA (tau 297-390) (human, UniProt P10636 614-707). Kind of test: sandwich ELISA #1, S1D12 mAb capture, sample C.
The target of test [5] is T5, human tau (hT40) with P301S and G335D of Line 66 mice (human, UniProt P10636 1-758).
T5 construct: transgene product in brain homogenate or plasma; also called L66 human tau
Kind of test: sandwich ELISA on brain homogenate, S1D12 mAb capture.
Method: All animals were female, 7-8 months old except Line 66+/+ which were 5 months old. […] For brain lysate preparation, half brains were sectioned into four and the individual sections were homogenised in 400 μl of ice cold RIPA buffer (Cell signalling Technology) containing protease and phosphatase inhibitors. Total protein concentrations for individual samples were established by BCA-assay and each sample was subsequently diluted to 1 mg/ml for future experiments.
Plate was washed as previously and then blocked for 1 hour at 37° C. in 2% MPBS. Brain homogenate samples (50 ng total protein) from each mouse type were added to the first wells and double diluted across the plate in PBS. These samples were left to incubate at RT for 1 hour. Various detection scAbs encompassing epitopes of interest were then added to the plate at 1 μg/ml and incubated for 1 h at RT. Secondary antibody used was anti-HuCk HRP and the assays were developed as described previously.

The target in test [6] is T2, full length human tau protein 2N4R …. Kind of test: sandwich ELISA, S1D12 mAb capture, scAb detection. The procedure, abridged:
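Read-out was HRP anti-HuCk with absorbance at 450 nm (positive above 0.3 after background subtraction) or chemiluminescence, including directly HRP-conjugated scAbs.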
Target sequence in this assay (P10636 other isoform, or with tags, fused parts or gaps limits assumed): as the sequence (P10636 other isoform, or with tags, fused parts or gaps limits assumed) above

For test [7] the target is unchanged. Briefly: sandwich ELISA, hT40 titrated, S1D12 mAb capture, CB7 scAb at 1 µg/ml.
Method: (§2) Four spiked samples were added to the first wells of designated rows and all samples were double diluted in PBS across the plate including the standard. […] Secondary antibody anti HuCk HRP was added and the reaction was developed and read as described previously. For ELISA #2, 20 nM dGAE was added to the first well and double diluted across the plate for standard curve plotting. As for ELISA #1, spiked samples of unknown protein concentrations were added to respective wells in doubling dilutions. […] For ELISA #3, a standard curve was plotted using average absorbance values obtained from binding events of hT40, dGA and dGAE all at starting concentration of 20 nM.

T4 sequence (P10637 other isoform, or with tags, fused parts or gaps limits assumed): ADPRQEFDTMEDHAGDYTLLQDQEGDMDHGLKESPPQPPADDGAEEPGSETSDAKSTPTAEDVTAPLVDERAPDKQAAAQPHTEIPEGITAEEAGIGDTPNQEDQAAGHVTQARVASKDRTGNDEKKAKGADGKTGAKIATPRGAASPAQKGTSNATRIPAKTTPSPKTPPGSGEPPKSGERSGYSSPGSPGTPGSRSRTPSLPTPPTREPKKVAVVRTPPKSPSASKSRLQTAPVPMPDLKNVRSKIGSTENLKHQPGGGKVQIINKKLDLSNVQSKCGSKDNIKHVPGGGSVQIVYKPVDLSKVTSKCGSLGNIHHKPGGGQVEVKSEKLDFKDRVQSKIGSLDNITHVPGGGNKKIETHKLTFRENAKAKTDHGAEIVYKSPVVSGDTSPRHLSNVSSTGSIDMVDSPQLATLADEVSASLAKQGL
T1 sequence (P10636 614-708 limits assumed): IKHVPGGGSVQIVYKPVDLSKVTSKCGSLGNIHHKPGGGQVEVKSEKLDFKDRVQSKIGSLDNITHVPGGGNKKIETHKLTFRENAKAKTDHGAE
Chain of dGA (tau 297-390) (P10636 614-707 limits assumed): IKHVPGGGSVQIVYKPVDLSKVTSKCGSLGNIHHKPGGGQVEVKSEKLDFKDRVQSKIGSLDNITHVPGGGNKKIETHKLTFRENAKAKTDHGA
Method for dGA (tau 297-390): To this end, an experiment was set up to assess whether the concentrations of different tau species could be determined in spiked samples using various antibody pairings directed towards specific regions of the tau protein.
as §2
Method for mouse tau: After washing and blocking as normal, several known standard solutions were set up in triplicate starting at 20 ng/ml of the desired protein before double diluted in the remaining wells. Mouse samples were added to wells in duplicate with a blank in between each sample group. Line1 plasma was diluted 1:10 before addition to plate to account for its high concentration while other samples were diluted 1:2 to account for potential matrix effects. These samples were left to incubate at RT for 1 hour. HRP-conjugated secondary scAb (conjugation carried out according to manufacturer's guidelines, Abcam) was added to each well and left to incubate at RT for 1 hour. The ELISA was developed using SuperSignal ELISA Femto Substrate (Thermo Scientific) and total luminescence was read on Clariostar Plus plate reader (BMG Labtech). Tau concentrations were established using a 4-parameter fit on concentration curves generated from recombinant tau protein spiked into samples at known concentration. For WT and L66 hT40 was used as a calibrator while dGA was used for L1 calibration.

B1: E2A6 scAb (scFv, not shown: small tags and cut ends)
scFv: QVQLQESGPSLVKPSQTLSLTCTVSGFSLTDWGVAWVRQAPGKALEWLGTMRSGGTTDDNPALKSRLSITRDTSKSQVSLSLSSVTTEDMAMYYCARGYLSGVHYAWGRGLLVTVSSEGKSSGASGESKVDDRVVRTQPSSVSKSLGQSVSITCSGSSSNVGAGNYVGWFQQVPGSAPKLLIYGATNRASGVPARFSGSKSGVTATLTITSLQAEDEADYYCASIDTSRSHIFGSGTRLTVLG
notes: scAb
As to B1, the binding result with dGAE (tau 297-391) is “binds”; in test [1], “no binding”.

B2: CB7 scAb (scFv, not shown: small tags and cut ends)
scFv: QVQLQESGPSLVKPSQTLSLTCTVSGFSLTNYRVGWVRQAPGKALEWVSNIRSGGTTWYNPALKSRLSITADTSKSQVSLSLSSVTTEDTAVYYCARDSSGDLYAYDYWGPGLLVTVSSEGKSSGASGESKVDDQAVLTQPSSVSRSLGQSVSMTCSGSSSNVGYGNYMAWFQQVPGSAPKLLIYGATSRASGVPDRFSGSRSGNTATLTISSLQAEDEADYYCASYDSTSGGVFGSGTRLTVLG
notes: scAb
In the case of B2, the Kd (in general, the equilibrium constant for the complex coming apart) was 5.2 nM in test [2], 5.19 nM in test [3] and 5.19 nM in [4]. The binding result with tau fragment 1-49 is given as “binds”; in the test with mouse tau, “no binding”; with dGA (tau 297-390), “no binding (tested: 2 nM dGA)”; in [5], “binds”. The koff (commonly the rate constant with which the complex falls apart) in [4] was 0.000694 s⁻¹. Besides, in test [4], the kon (in general, the rate constant with which the complex forms) stood at 133000 M⁻¹ s⁻¹. The molecule further registered a LoD chemiluminescence detection in test [6] of 3.33 ng/mL. The LoD colourimetric detection in test [6] is 15 ng/mL. The EC50 (read off the curve) (commonly the midpoint of the concentration-response curve) in test [7] is roughly 4 nM.
